Experimental data as given in paper PMC5730846, “Tumor suppressor Tsc1 is a new Hsp90 co‐chaperone that facilitates folding of kinase and non‐kinase clients” (The EMBO Journal, 2017).

Target: the molecule itself
Experiment: SEC; Tsc1-D-His6 concentrated to 10 mg/ml, Superdex 75 gel filtration

B1: Tsc1-D-His6 (domain or fragment, UniProt Q92574 998-1164, looked up)
chain: DGCSDSMVGHNEEASGHNGETKTPRPSSARGSSGSRGGGGSSSSSSELSTPEKPPHQRAGPFSSRWETTMGEASASIPTTVGSLPSSKSFLGMKARELFRNKSESQCDEDGMTSSLSESLKTELGKDLGVEAKIPLNLDGPHPSPPTPDSVGQLHIMDYNETHHEHS
notes: predicted monomer 22.1 kDa; dimer by gel filtration; also called fragment D; source: E. coli Tuner pLysS, purified (Ni-NTA)
stoichiometry N: 2
